Data: patent US10919943B2, “Mutant proteins enabling agrochemical control of plant gene expression” (The Regents of the University of California, priority 2016, dated 2021)

Molecular target: T1, PYR1*^-MANDI (Arabidopsis thaliana, UniProt O49686, A160V/F108A/F159V/K59R/M158I/S122G/T162D/V81I/Y58H)
T1 construct: expressed in transfected cells; host or cells: S. cerevisiae strain MAV99 (selection)
T1 sequence (O49686 1-191 Y58H/K59R/V81I/F108A/S122G/M158I/F159V/A160V/T162D): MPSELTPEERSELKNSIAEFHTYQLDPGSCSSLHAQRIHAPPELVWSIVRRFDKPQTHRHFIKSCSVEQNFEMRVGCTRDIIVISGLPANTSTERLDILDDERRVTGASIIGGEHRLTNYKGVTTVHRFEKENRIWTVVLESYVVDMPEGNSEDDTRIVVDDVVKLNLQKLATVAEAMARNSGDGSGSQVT
T1 sequence (Q9CAJ0 4-511 R199A/D204A/S322D/V393R/R505A partner): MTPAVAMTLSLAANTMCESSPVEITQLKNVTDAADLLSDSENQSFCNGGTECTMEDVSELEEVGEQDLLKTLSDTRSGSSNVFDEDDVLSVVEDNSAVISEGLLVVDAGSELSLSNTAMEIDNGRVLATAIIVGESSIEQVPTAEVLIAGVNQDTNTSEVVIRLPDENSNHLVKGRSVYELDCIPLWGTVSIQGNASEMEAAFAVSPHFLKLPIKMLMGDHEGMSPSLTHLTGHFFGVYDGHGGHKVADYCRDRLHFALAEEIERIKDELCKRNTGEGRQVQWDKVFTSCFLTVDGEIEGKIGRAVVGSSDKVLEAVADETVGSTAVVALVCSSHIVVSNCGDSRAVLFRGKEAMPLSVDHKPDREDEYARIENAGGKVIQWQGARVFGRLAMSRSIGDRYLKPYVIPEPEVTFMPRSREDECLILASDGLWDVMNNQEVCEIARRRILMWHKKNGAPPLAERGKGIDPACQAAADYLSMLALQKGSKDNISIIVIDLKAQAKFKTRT
Experiment: Yeast two hybrid, mandipropamid-induced interaction of HAB1 variants with pBD-PYR1*^-MANDI
Format: cell-based
Conditions: FIG. 6
Excerpt: To investigate the effects of overexpressing HAB1^!-2 in Arabidopsis, we used Agrobacterium mediated transformation to generate 35S::GFP-HAB1^!-2 transgenic plants. HAB1^!-2 was cloned from pACT-HAB1^!-2 into pEGAD, a binary vector suitable for plant transformation, generating a 35S-driven GFP-HAB1^!-2 fusion protein. The clone was transformed into Agrobacterium and the floral dip method used to transform Arabidopsis. After selection of T0 seed on soil containing glufosinate, several T1 seedlings were identified. […] As an alternate strategy, we eliminated HAB1's catalytic activity by introducing a mutation in a conserved metal-ion binding residue (D204), which is homologous to D131A mutation in ABI1, previously shown to eliminate phosphatase activity without disrupting wild type receptor-ABI1 interactions (Liang et al., 2011). We used QuickChange mutagenesis to introduce the D204A mutation into pACT-HAB1^!-2, generating pACT-HAB1^!-3. When tested for mandipropamid induced interactions with pBD-PYR1*^-MANDI, HAB1^!-3 is ˜10-fold less sensitive to mandipropamid relative to HAB1^!-2 (FIG. 5).
D204 is located within HAB1's catalytic active site and binds to one of 3 catalytic Mg^++ ions that participate in catalysis. […] It is likely that disruptions to active site structure introduced by D204A destabilize the PYR1*^-MANDI/HAB1^!-3 interaction relative to HAB1^!-2. We reasoned that suppressor mutations in other HAB1 interface or active site residues could restore sensitivity by strengthening interactions with PYR1*^-MANDI. To identify such suppressors, we mutagenized the pACT-HAB1^!-3 template using NNK mutagenesis in 28 residues located with at the PYR1 binding interface. The residues targeted were: R199, S200, E201, E203, D243, G244, H245, G246, G247, S322, E323, T324, D346, K365, K381, 1383, Q384, W385, Q386, R389, F391, G392, Y404, S431, G433, D436, D492 and N394. The pACT-HAB1^!-3 template was mutagenized in 28 separate NNK mutagenesis reactions using the QuickChange protocol. Mini-libraries, each containing ˜1000 clones, were made for each NNK reaction and plasmid DNA for the 28 mutations prepared, pooled, and then transformed into S. cerevisiae strain MAV99 co-transformed with pBD-PYR1*^-MANDI, and then plated onto selective SD(-Leu,-Trp,-Ura) agar media supplemented with 500 nM mandipropamid. […] S322D and R199A were combined using the Lightning Multi-site Mutagenesis™ (Agilent, USA) method, and the resultant pentuple mutant tested in combination with pBD-PYR1*^-MANDI for sensitivity to mandipropamid using β-galactosidase assays.

B1: HAB1*: catalytically inactive orthogonal pentuple HAB1 mutant (protein, listed as Arabidopsis thaliana)
chain: T1 sequence (Q9CAJ0 4-511 R199A/D204A/S322D/V393R/R505A partner)
mandipropamid sensitivity for binding to pBD-PYR1*^-MANDI: nM sensitivity
